Measurements reported in the supplement of paper PMC11246515.
± gives the standard deviation of the averaged measurements.

Test: total protein half-life in vivo (active degradation + dilution); higher = more stable protein
[1] = E. coli NCM3722 delta-clpP, growth: N-lim chemostat, doubling time 6 h
[2] = E. coli NCM3722 delta-hslV, growth: N-lim chemostat, doubling time 6 h
[3] = E. coli NCM3722 delta-lon, growth: N-lim chemostat, doubling time 6 h
[4] = E. coli NCM3722 delta-smpB, growth: N-lim chemostat, doubling time 6 h
[5] = wild type E. coli NCM3722, growth: C-lim chemostat, doubling time 3 h
[6] = wild type E. coli NCM3722, growth: C-lim chemostat, doubling time 6 h
[7] = wild type E. coli NCM3722, growth: C-lim chemostat, doubling time 12 h
[8] = wild type E. coli NCM3722, growth: N-lim chemostat, doubling time 6 h
[9] = wild type E. coli NCM3722, growth: N-lim chemostat, doubling time 12 h
[10] = wild type E. coli NCM3722, growth: P-lim chemostat, doubling time 6 h
[11] = wild type E. coli NCM3722, growth: P-lim chemostat, doubling time 12 h
[12] = E. coli NCM3722 delta-clpP delta-lon delta-hslV, growth: N-lim chemostat, doubling time 6 h

MIEFVYPHTQLVAGVDEVGRGPLVGAVVTAAVILDPARPIAGLNDSKKLSEKRRLALYEEIKEKALSWSLGRAEPHEIDELNILHATMLAMQRAVAGLHIAPEYVLIDGNRCPKLPMPAMAVVKGDSRVPEISAASILAKVTRDAEMAALDIVFPQYGFAQHKGYPTAFHLEKLAEHGATEHHRRSFGPVKRALGLAS
total protein half-life in vivo [1]: 1.93 h | total protein half-life in vivo [2]: 1.11 h | total protein half-life in vivo [3]: 2.38 ± 0.2 h | total protein half-life in vivo [4]: 1.39 ± 0.024 h | total protein half-life in vivo [5]: 1.7 ± 0.042 h | total protein half-life in vivo [6]: 2.67 ± 0.43 h | total protein half-life in vivo [7]: 3.19 h | total protein half-life in vivo [8]: 1.19 h | total protein half-life in vivo [9]: 1.91 h | total protein half-life in vivo [10]: 1.43 h | total protein half-life in vivo [11]: 2.12 ± 0.71 h

MNFRRLKYFVKIVDIGSLTQAAEVLHIAQPALSQQVATLEGELNQQLLIRTKRGVTPTDAGKILYTHARAILRQCEQAQLAVHNVGQALSGQVSIGFAPGTAASSITMPLLQAVRAEFPEIVIYLHENSGAVLNEKLINHQLDMAVIYEHSPVAGVSSQALLKEDLFLVGTQDCPGQSVDVNAIAQMNLFLPSDYSAIRLRVDEAFSLRRLTAKVIGEIESIATLTAAIASGMGVAVLPESAARSLCGAVNGWMSRITTPSMSLSLSLNLPARANLSPQAQAVKELLMSVISSPVMEKRQWQLVS
total protein half-life in vivo [12]: 6.26 ± 0.89 h | total protein half-life in vivo [1]: 2.6 ± 0.032 h | total protein half-life in vivo [2]: 0.485 ± 0.11 h | total protein half-life in vivo [3]: 0.469 h | total protein half-life in vivo [4]: 1.83 ± 0.15 h | total protein half-life in vivo [8]: 0.978 ± 0.3 h | total protein half-life in vivo [9]: 1.31 ± 0.14 h

MYLYIETLKQRLDAINQLRVDRALAAMGPAFQQVYSLLPTLLHYHHPLMPGYLDGNVPKGICLYTPDETQRHYLNELELYRGMSVQDPPKGELPITGVYTMGSTSSVGQSCSSDLDIWVCHQSWLDSEERQLLQRKCSLLENWAASLGVEVSFFLIDENRFRHNESGSLGGEDCGSTQHILLLDEFYRTAVRLAGKRILWNMVPCDEEEHYDDYVMTLYAQGVLTPNEWLDLGGLSSLSAEEYFGASLWQLYKSIDSPYKAVLKTLLLEAYSWEYPNPRLLAKDIKQRLHDGEIVSFGLDPYCMMLERVTEYLTAIEDFTRLDLVRRCFYLKVCEKLSRERACVGWRRAVLSQLVSEWGWDEARLAMLDNRANWKIDQVREAHNELLDAMMQSYRNLIRFARRNNLSVSASPQDIGVLTRKLYAAFEALPGKVTLVNPQISPDLSEPNLTFIYVPPGRANRSGWYLYNRAPNIESIISHQPLEYNRYLNKLVAWAWFNGLLTSRTRLYIKGNGIVDLPKLQEMVADVSHHFPLRLPAPTPKALYSPCEIRHLAIIVNLEYDPTAAFRNQVVHFDFRKLDVFSFGENQNCLVGSVDLLYRNSWNEVRTLHFNGEQSMIEALKTILGKMHQDAAPPDSVEVFCYSQHLRGLIRTRVQQLVSECIELRLSSTRQETGRFKALRVSGQTWGLFFERLNVSVQKLENAIEFYGAISHNKLHGLSVQVETNHVKLPAVVDGFASEGIIQFFFEETQDENGFNIYILDESNRVEVYHHCEGSKEELVRDVSRFYSSSHDRFTYGSSFINFNLPQFYQIVKVDGREQVIPFRTKSIGNMPPANQDHDTPLLQQYFS
total protein half-life in vivo [12]: 4.23 ± 0.18 h | total protein half-life in vivo [1]: 3.635 ± 0.028 h | total protein half-life in vivo [2]: 1.14 ± 0.25 h | total protein half-life in vivo [3]: 1.04 ± 0.087 h | total protein half-life in vivo [4]: 1.36 ± 0.081 h | total protein half-life in vivo [5]: 0.845 ± 0.015 h | total protein half-life in vivo [6]: 1.19 h | total protein half-life in vivo [7]: 1.66 ± 0.22 h | total protein half-life in vivo [8]: 1.27 ± 0.07 h | total protein half-life in vivo [9]: 1.72 ± 0.053 h | total protein half-life in vivo [10]: 2.155 ± 0.0068 h | total protein half-life in vivo [11]: 3.73 ± 0.4 h

MDIIGGQHLRQMWDDLADVYGHKTALICESSGGVVNRYSYLELNQEINRTANLFYTLGIRKGDKVALHLDNCPEFIFCWFGLAKIGAIMVPINARLLCEESAWILQNSQACLLVTSAQFYPMYQQIQQEDATQLRHICLTDVALPADDGVSSFTQLKNQQPATLCYAPPLSTDDTAEILFTSGTTSRPKGVVITHYNLRFAGYYSAWQCALRDDDVYLTVMPAFHIDCQCTAAMAAFSAGATFVLVEKYSARAFWGQVQKYRATVTECIPMMIRTLMVQPPSANDQQHRLREVMFYLNLSEQEKDAFCERFGVRLLTSYGMTETIVGIIGDRPGDKRRWPSIGRVGFCYEAEIRDDHNRPLPAGEIGEICIKGIPGKTIFKEYFLNPQATAKVLEADGWLHTGDTGYRDEEDFFYFVDRRCNMIKRGGENVSCVELENIIAAHPKIQDIVVVGIKDSIRDEAIKAFVVLNEGETLSEEEFFRFCEQNMAKFKVPSYLEIRKDLPRNCSGKIIRKNLK
total protein half-life in vivo [12]: 5.31 h | total protein half-life in vivo [2]: 6.57 h | total protein half-life in vivo [4]: 3.61 ± 0.13 h | total protein half-life in vivo [7]: 11.3 h | total protein half-life in vivo [8]: 4.98 h | total protein half-life in vivo [9]: 7.9 h | total protein half-life in vivo [11]: 10.7 ± 0.12 h

MTTMNPFLVQSTLPYLAPHFDQIANHHYRPAFDEGMQQKRAEIAAIALNPQMPDFNNTILALEQSGELLTRVTSVFFAMTAAHTNDELQRLDEQFSAELAELANDIYLNGELFARVDAVWQRRESLGLDSESIRLVEVIHQRFVLAGAKLAQADKAKLKVLNTEAATLTSQFNQRLLAANKSGGLVVNDIAQLAGMSEQEIALAAEAAREKGLDNKWLIPLLNTTQQPALAEMRDRATREKLFIAGWTRAEKNDANDTRAIIQRLVEIRAQQATLLGFPHYAAWKIADQMAKTPEAALNFMREIVPAARQRASDELASIQAVIDKQQGGFSAQPWDWAFYAEQVRREKFDLDEAQLKPYFELNTVLNEGVFWTANQLFGIKFVERFDIPVYHPDVRVWEIFDHNGVGLALFYGDFFARDSKSGGAWMGNFVEQSTLNKTHPVIYNVCNYQKPAAGEPALLLWDDVITLFHEFGHTLHGLFARQRYATLSGTNTPRDFVEFPSQINEHWATHPQVFARYARHYQSGAAMPDELQQKMRNASLFNKGYEMSELLSAALLDMRWHCLEENEAMQDVDDFELRALVAENMDLPAIPPRYRSSYFAHIFGGGYAAGYYAYLWTQMLADDGYQWFVEQGGLTRENGLRFREAILSRGNSEDLERLYRQWRGKAPKIMPMLQHRGLNI
total protein half-life in vivo [12]: 5.48 ± 0.74 h | total protein half-life in vivo [1]: 4.67 ± 0.22 h | total protein half-life in vivo [2]: 4.335 ± 0.038 h | total protein half-life in vivo [3]: 4.65 ± 0.16 h | total protein half-life in vivo [4]: 4.43 ± 0.24 h | total protein half-life in vivo [5]: 3.13 ± 0.13 h | total protein half-life in vivo [6]: 5.67 ± 0.52 h | total protein half-life in vivo [7]: 9.87 ± 0.43 h | total protein half-life in vivo [8]: 4.53 ± 0.2 h | total protein half-life in vivo [9]: 7.84 ± 0.66 h | total protein half-life in vivo [10]: 6.12 ± 0.066 h | total protein half-life in vivo [11]: 11.7 ± 0.94 h

MRHPLVMGNWKLNGSRHMVHELVSNLRKELAGVAGCAVAIAPPEMYIDMAKREAEGSHIMLGAQNVDLNLSGAFTGETSAAMLKDIGAQYIIIGHSERRTYHKESDELIAKKFAVLKEQGLTPVLCIGETEAENEAGKTEEVCARQIDAVLKTQGAAAFEGAVIAYEPVWAIGTGKSATPAQAQAVHKFIRDHIAKVDANIAEQVIIQYGGSVNASNAAELFAQPDIDGALVGGASLKADAFAVIVKAAEAAKQA [P0A858]
total protein half-life in vivo [12]: 5.91 ± 0.91 h | total protein half-life in vivo [1]: 5.22 ± 0.98 h | total protein half-life in vivo [2]: 4.718 ± 0.03 h | total protein half-life in vivo [3]: 5.61 ± 0.81 h | total protein half-life in vivo [4]: 4.59 ± 0.26 h | total protein half-life in vivo [5]: 3.057 ± 0.024 h | total protein half-life in vivo [6]: 5.92 ± 0.066 h | total protein half-life in vivo [7]: 10.6 ± 0.24 h | total protein half-life in vivo [8]: 4.75 ± 0.24 h | total protein half-life in vivo [9]: 8.33 ± 0.46 h | total protein half-life in vivo [10]: 5.79 ± 0.17 h | total protein half-life in vivo [11]: 13.1 ± 0.81 h
